# ± gives the uncertainty stated by the source.
# B1: Retinoic acid receptor beta, residues 85 to 161; numbered along this chain, P10826 (parent)
# chain: YKPCFVCQDKSSGYHYGVSACEGCKGFFRRSIQKNMIYTCHRDKNCVINKVTRNRCQYCRLQKCFEVGMSKESVRND
# Variants of: B1
# Assay: abundance fitness (aPCA) (normalised: wild type 0, dead -1); higher = more abundant; growth selection in yeast, the domain comes from the species named
# Details: Homo sapiens
row,Variant,abundance fitness
1,K2L,-0.162 ± 0.064
2,K2A,-0.289 ± 0.082
3,G17T,-0.242 ± 0.065
4,G17P,-0.164 ± 0.11
5,G17Y,0.101 ± 0.21
6,F5D,-0.314 ± 0.081
7,F5I,-0.022 ± 0.073
8,F5P,0.076 ± 0.071
9,F5C,-0.244 ± 0.087
10,F5M,-0.155 ± 0.065
11,C7A,-0.991 ± 0.3
12,C7D,-0.724 ± 0.38
13,C7G,-1.05 ± 0.12
14,E22K,-0.205 ± 0.06
15,E22G,-0.325 ± 0.049
16,E22N,-0.317 ± 0.11
17,E22Q,-0.316 ± 0.086
18,E22R,-0.663 ± 0.072
19,V67M,-0.063 ± 0.054
20,V67K,0.017 ± 0.054
21,V67E,-0.282 ± 0.067
22,V67G,-0.161 ± 0.056
23,D9Y,-0.57 ± 0.14
24,D9A,-0.465 ± 0.083

row,Variant,abundance fitness
1,D9N,-0.828 ± 0.2
2,D9T,-1.01 ± 0.24
3,D9M,-0.457 ± 0.095
4,D9C,-0.525 ± 0.14
5,D9G,-0.588 ± 0.062
6,Q8G,0.044 ± 0.035
7,Q8R,-0.263 ± 0.043
8,Q8D,0.08 ± 0.057
9,Q8W,-0.083 ± 0.048
10,H15L,-0.097 ± 0.051
11,H15W,-0.203 ± 0.2
12,H15I,-0.348 ± 0.096
13,H15G,-0.25 ± 0.12
14,C21R,-0.666 ± 0.072
15,C21D,-0.904 ± 0.3
16,C21Q,-0.93 ± 0.27
17,C21T,-0.98 ± 0.27
18,C21G,-0.76 ± 0.073
19,C21Y,-0.885 ± 0.27
20,C21E,-0.575 ± 0.12
21,Q33R,-0.037 ± 0.033
22,Q33S,-0.014 ± 0.05
23,Q33E,-0.017 ± 0.052
24,Q33L,0.078 ± 0.038

row,Variant,abundance fitness
1,Q33K,-0.016 ± 0.069
2,Q33H,-0.175 ± 0.1
3,Q33M,0.136 ± 0.051
4,P3R,-0.321 ± 0.051
5,P3I,-0.042 ± 0.17
6,P3H,0.006 ± 0.088
7,P3A,0.064 ± 0.043
8,P3C,-0.101 ± 0.094
9,P3F,0.037 ± 0.14
10,P3K,0.048 ± 0.066
11,N54M,0.216 ± 0.052
12,N54H,0.067 ± 0.082
13,N54C,-0.267 ± 0.082
14,N54Q,0.183 ± 0.06
15,N54A,0.074 ± 0.045
16,C59K,-0.998 ± 0.28
17,C59M,-0.732 ± 0.15
18,C59L,-0.84 ± 0.12
19,C59S,-0.294 ± 0.084
20,C59G,-0.758 ± 0.12
21,C59A,-0.619 ± 0.097
22,C59T,-0.499 ± 0.15
23,F65S,-0.31 ± 0.052
24,F65G,-0.442 ± 0.037

row,Variant,abundance fitness
1,F65N,-0.128 ± 0.096
2,F65A,-0.291 ± 0.047
3,F65T,-0.02 ± 0.048
4,F65P,-0.542 ± 0.12
5,F65K,-0.081 ± 0.048
6,G23F,-0.304 ± 0.092
7,G23M,-0.227 ± 0.067
8,G23N,-0.063 ± 0.11
9,G23I,-0.282 ± 0.14
10,G23K,-0.288 ± 0.07
11,G23D,0.228 ± 0.067
12,G23A,0.016 ± 0.042
13,G23E,0.231 ± 0.04
14,V6P,-0.849 ± 0.21
15,V6L,-0.81 ± 0.12
16,V6R,-0.83 ± 0.091
17,V6T,-0.822 ± 0.18
18,V6H,-0.748 ± 0.37
19,C46L,-0.668 ± 0.076
20,C46W,-0.681 ± 0.15
21,C56D,-0.623 ± 0.23
22,D43Y,-0.103 ± 0.09
23,D43R,-0.024 ± 0.033
24,D43G,0.012 ± 0.035

row,Variant,abundance fitness
1,D43V,-0.103 ± 0.036
2,D43L,-0.066 ± 0.037
3,G13C,-0.334 ± 0.11
4,G13F,-0.349 ± 0.14
5,G13H,-0.265 ± 0.15
6,V18G,-0.22 ± 0.043
7,H41Y,-0.178 ± 0.099
8,H41N,-0.121 ± 0.087
9,I32V,0.055 ± 0.04
10,I32S,-0.487 ± 0.098
11,I32G,-0.521 ± 0.06
12,I32P,-1.09 ± 0.37
13,S19H,-0.032 ± 0.092
14,S19D,-0.285 ± 0.098
15,S19T,0.02 ± 0.052
16,S19A,0.011 ± 0.044
17,S19Y,-0.048 ± 0.076
18,S19Q,0.049 ± 0.062
19,S31W,-0.09 ± 0.045
20,S31T,0.148 ± 0.056
21,S31C,-0.12 ± 0.06
22,S31Y,-0.51 ± 0.2
23,S31E,-0.505 ± 0.086
24,S31L,-0.6 ± 0.09

row,Variant,abundance fitness
1,V47L,0.03 ± 0.033
2,V47G,-0.096 ± 0.043
3,V47Q,0.026 ± 0.049
4,V47W,-0.048 ± 0.048
5,V47D,0.168 ± 0.063
6,V47M,0.075 ± 0.047
7,V47F,-0.11 ± 0.057
8,Y58L,-0.545 ± 0.087
9,Y58N,-0.634 ± 0.17
10,Y58H,-0.111 ± 0.13
11,Y58G,-0.134 ± 0.039
12,E66F,-0.036 ± 0.11
13,C40V,-0.867 ± 0.082
14,C40P,-0.703 ± 0.12
15,C40G,-0.817 ± 0.057
16,C40Y,-0.642 ± 0.17
17,C40R,-0.883 ± 0.073
18,C40T,-0.539 ± 0.11
19,K50Q,0.158 ± 0.043
20,K50N,0.021 ± 0.085
21,K50A,0.145 ± 0.052
22,K50M,0.124 ± 0.069
23,K50G,0.153 ± 0.064
24,K50P,0.09 ± 0.044

row,Variant,abundance fitness
1,K50R,0.153 ± 0.051
2,Y16G,0.025 ± 0.06
3,Y16T,-0.069 ± 0.058
4,Y16V,-0.062 ± 0.07
5,Y16W,-0.126 ± 0.14
6,Y14P,0.125 ± 0.057
7,R60M,0.199 ± 0.038
8,R55K,0.198 ± 0.048
9,R55V,0.227 ± 0.036
10,R55F,-0.343 ± 0.18
11,R55N,0.26 ± 0.065
12,R55D,0.244 ± 0.065
13,R55S,0.265 ± 0.042
14,T39P,-0.327 ± 0.08
15,T39H,0.029 ± 0.067
16,T39L,0.059 ± 0.033
17,T39S,-0.01 ± 0.039
18,E72P,-0.101 ± 0.076
19,E72W,-0.271 ± 0.068
20,E72D,0.127 ± 0.059
21,E72I,-0.184 ± 0.14
22,E72H,-0.117 ± 0.12
23,S70K,0.078 ± 0.05

# Source: the Human Domainome abundance scans (Beltran et al. 2025)
